Data on one molecule can be found in publication PMC3733885, “Structures of an Apo and a Binary Complex of an Evolved Archeal B Family DNA Polymerase Capable of Synthesising Highly Cy-Dye Labelled DNA”.

This series has as its target T1, Pfu-E10 DNA polymerase (evolved Pfu polB variant) (Pyrococcus furiosus, UniProt P61875 1-775, R407I).
T1 sequence: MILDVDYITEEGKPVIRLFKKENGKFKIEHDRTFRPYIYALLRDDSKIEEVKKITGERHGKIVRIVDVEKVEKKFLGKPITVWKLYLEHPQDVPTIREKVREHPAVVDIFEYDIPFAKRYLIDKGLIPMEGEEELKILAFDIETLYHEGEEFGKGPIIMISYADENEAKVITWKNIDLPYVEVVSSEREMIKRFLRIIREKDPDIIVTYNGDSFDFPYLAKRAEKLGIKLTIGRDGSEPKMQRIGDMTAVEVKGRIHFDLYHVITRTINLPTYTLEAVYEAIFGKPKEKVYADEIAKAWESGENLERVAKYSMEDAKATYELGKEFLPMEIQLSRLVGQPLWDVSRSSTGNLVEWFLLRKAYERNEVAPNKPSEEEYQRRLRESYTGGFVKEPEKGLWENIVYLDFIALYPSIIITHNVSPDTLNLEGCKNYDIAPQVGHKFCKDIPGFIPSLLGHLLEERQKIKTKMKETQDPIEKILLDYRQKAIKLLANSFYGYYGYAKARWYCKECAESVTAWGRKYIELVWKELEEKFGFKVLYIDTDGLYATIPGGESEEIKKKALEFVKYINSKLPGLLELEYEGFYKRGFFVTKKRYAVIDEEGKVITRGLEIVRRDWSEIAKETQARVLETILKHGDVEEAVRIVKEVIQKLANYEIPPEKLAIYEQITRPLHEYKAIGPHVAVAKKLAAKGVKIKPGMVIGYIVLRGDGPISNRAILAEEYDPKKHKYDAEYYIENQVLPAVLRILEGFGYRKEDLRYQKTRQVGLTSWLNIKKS
The series can be described thus: X-ray crystallography (2.9 A); binary complex; 10 mM dCTP in crystallisation medium but no dNTP or metal ion seen at active site; Complex: 20 mM Tris, 50 mM NaCl, 5 mM MgCl2, 5% glycerol, 1 mM dCTP, 1:5 protein:DNA, 4 C overnight; crystals: 0.1 M Na cacodylate pH 6.5, 0.1 M Na citrate, 30% isopropanol, 10 mM dCTP. The following applies: protein: recombinant; 5' overhang 3 nt (template).

B1: primer:template duplex (crystal) (dsDNA)
DNA 1: ACGGGTAAGCA
DNA 2: TGCTTACC
modifications: 3'-terminal C of primer is 2',3'-dideoxycytidine (DOC)
For the molecule B1, the binding result is recorded as “binds”.
